{"source": "paper PMC7413259", "conditions_in_all_cases": "5' triphosphate, B1: 50 mM Tris-HCl pH 8.0, 150 mM NaCl, 1 mM MgCl2, 2 mM beta-mercaptoethanol, 10% glycerol, 20 C, B2: same with 100 mM NaCl", "key": {"[1]": {"test_system": "ZIKV NS5 RdRp domain (Zika virus)", "test": "fluorescence titration"}, "ZIKV NS5 WT (Zika virus)": {"biological_target": "ZIKV NS5 WT (Zika virus) (UniProt A0A024B7W1)", "test": "fluorescence titration"}, "[2]": {"biological_target": "T1, ZIKV NS5 MTase domain WT (Zika virus) (UniProt A0A142I5B9)", "test": "fluorescence titration"}, "[3]": {"biological_target": "T1, ZIKV NS5 MTase domain WT (Zika virus)", "test": "fluorescence anisotropy"}, "[4]": {"biological_target": "T1, ZIKV NS5 MTase domain WT (Zika virus)", "test": "fluorescence titration", "remark": "listed apart in the source"}}}
{"substance": "ZIKV SLA (SLA-F)", "values": [{"measurement": "Kd", "setting": "[1]", "result": 530, "unit": "nM"}, {"measurement": "Kd", "setting": "ZIKV NS5 WT (Zika virus)", "result": 280, "unit": "nM"}, {"measurement": "Kd", "setting": "[2]", "result": 590, "unit": "nM"}, {"measurement": "Kd", "setting": "[3]", "result": 310, "unit": "nM"}, {"measurement": "Kd", "setting": "[4]", "result": 400, "unit": "nM"}]}
